Patent US20080234198A1 (Eli Lilly, published 2008)

What was measured:
[1] = biological target: T1, human VPAC2 receptor (human), P41587; test: filter binding, VPAC2 cell membranes, displacement of 125I-VIP; conditions: remark: other sources report otherwise
T1 chain: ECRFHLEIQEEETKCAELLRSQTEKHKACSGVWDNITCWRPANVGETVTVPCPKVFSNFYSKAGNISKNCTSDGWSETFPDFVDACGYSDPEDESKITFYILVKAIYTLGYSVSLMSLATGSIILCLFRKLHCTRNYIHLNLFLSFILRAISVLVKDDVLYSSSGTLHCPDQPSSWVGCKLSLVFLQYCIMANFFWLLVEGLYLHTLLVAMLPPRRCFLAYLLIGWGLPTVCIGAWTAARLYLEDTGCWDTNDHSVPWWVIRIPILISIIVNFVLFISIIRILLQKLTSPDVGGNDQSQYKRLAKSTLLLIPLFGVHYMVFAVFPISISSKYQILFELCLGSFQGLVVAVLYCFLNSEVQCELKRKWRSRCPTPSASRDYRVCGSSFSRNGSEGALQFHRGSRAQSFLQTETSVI

human VPAC2 receptor [2] = biological target: T2, human VPAC2 receptor (human, UniProt P41587 24-438); test: cell-based or functional assay
T2 sequence (looked up): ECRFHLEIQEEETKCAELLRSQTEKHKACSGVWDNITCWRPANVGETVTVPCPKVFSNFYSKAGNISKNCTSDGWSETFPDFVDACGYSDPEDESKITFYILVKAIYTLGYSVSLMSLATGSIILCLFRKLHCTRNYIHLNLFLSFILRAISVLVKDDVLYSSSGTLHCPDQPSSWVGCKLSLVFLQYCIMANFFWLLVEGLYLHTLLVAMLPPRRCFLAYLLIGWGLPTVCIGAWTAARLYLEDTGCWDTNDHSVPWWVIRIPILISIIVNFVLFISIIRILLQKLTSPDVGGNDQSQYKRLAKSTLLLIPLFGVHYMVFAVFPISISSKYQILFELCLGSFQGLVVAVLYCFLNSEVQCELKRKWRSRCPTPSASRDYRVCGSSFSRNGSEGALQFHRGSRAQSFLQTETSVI

rat VPAC1 receptor = biological target: T3, rat VPAC1 receptor (rat, UniProt P30083 31-459); test: cell-based or functional assay
T3 sequence (looked up): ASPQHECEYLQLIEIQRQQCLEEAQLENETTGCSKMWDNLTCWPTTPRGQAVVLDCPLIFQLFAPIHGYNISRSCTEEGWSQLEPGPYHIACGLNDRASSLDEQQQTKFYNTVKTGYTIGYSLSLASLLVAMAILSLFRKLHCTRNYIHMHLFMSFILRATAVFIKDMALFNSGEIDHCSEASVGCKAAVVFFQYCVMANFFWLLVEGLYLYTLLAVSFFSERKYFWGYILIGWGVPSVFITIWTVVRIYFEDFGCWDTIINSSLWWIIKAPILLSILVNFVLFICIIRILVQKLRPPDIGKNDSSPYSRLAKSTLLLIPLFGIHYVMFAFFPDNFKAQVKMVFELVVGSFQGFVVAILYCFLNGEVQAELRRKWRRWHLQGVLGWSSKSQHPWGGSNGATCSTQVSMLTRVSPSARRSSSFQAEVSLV

rat VPAC2 receptor = biological target: T4, rat VPAC2 receptor (rat, UniProt P35000 23-437); test: cell-based or functional assay
T4 sequence (looked up): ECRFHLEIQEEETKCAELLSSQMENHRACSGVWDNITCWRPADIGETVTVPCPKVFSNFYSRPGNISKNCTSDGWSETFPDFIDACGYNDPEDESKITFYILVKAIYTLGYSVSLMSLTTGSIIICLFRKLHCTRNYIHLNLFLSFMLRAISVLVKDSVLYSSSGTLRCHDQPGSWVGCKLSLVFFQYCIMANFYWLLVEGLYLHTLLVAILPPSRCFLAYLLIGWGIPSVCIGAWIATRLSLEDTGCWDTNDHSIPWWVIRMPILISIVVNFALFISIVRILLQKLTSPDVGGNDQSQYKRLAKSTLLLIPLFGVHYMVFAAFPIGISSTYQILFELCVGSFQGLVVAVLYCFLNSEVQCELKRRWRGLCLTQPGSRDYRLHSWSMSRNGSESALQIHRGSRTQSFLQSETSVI

human VPAC2 receptor [3] = biological target: T2, human VPAC2 receptor; test: filter binding, VPAC2 cell membranes, displacement of 125I-VIP
Description: Binding assays: Membrane prepared from a stable VPAC2 cell line (see Example 3) or from cells transiently transfected with human VPAC1 or PAC1 are used.
The assay plate is filled with 25 μL assay buffer, 25 μL membranes (2.5 μg) suspended in assay buffer, 25 μL agonist in assay buffer, and 25 μL tracer (about 40000 cpm) in assay buffer. The filled plate is incubated for 1 hour with shaking.
The transfer from assay plate to filter plate is conducted. The blocking buffer is aspirated by vacuum filtration and washed two times with flush buffer. 90 μL is transferred from the assay plate to the filter plate. The 90 μL transferred from assay plate is aspirated and washed three times with 200 μL flush buffer. The plastic support is removed. It is dried for 1 hour at 60° C. 30 μL Microscint is added. The count is performed.

B1: P533 (peptide)
peptide: HSDAVFTEQYTXLRXQXAAXXYLQSIXXGGPSSGAPPPS
modifications: here or on the partner: C6-HSDAVFTEQY(OMe)TOrnLRAibQK(WPEG40K)AAAibOrnYLQSIOrnOrnGGPSSGAPPPS-NH2
[1]
  IC50: 959 nM

## HSDAVFTEQYTXLRXQVAAXCYLQSIXXGGPSSGAPPPS (C6-HSDAVFTEQY(OMe)TOrnLRAibQVAAAibC(PEG40K)YLQSIOrnOrnGGPSSGAPPPS-NH2) [P460]
Human VPAC2 receptor [2]
  Human VPAC2 Receptor: Alphascreen (EC50; nM): 430 nM
Rat VPAC1 receptor
  Rat VPAC1 Receptor: DiscoveRx: (EC50; nM): > 1000 nM
Rat VPAC2 receptor
  Rat VPAC2 Receptor: DiscoveRx: (EC50; nM): 1160 nM
Human VPAC2 receptor [3]
  IC50: 914 nM
